Assay results from the supplement of paper PMC9112550, “Optimization of the antimicrobial peptide Bac7 by deep mutational scanning” (BMC Biology, 2022).

What follows are sequences tested on Escherichia coli TOP10 (assay: shrunken log2 fold change of peptide-encoding DNA abundance (4.5 h post-induction vs induction); higher = less antimicrobial activity (less host growth inhibition)). Conditions: time post-induction: 4.5 h; library: site-saturation at positions 5, 18, 19, 20.
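Further: peptides expressed intracellularly from a pBAD plasmid library in pooled LB shake-flask culture, induced with 0.3% L-arabinose, DNA abundance read by NGS, three biological replicates, DESeq2 with apeglm shrinkage.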

Sequence | shrunken log2 fold change
RRIRHRPPRLPRPRPRPQMEPRP | -0.00192
RRIRFRPPRLPRPRPRPVGIPRP | -0.135
RRIRRRPPRLPRPRPRPRTPPRP | 0.616
RRIRPRPPRLPRPRPRPWIIPRP | -0.919
RRIRYRPPRLPRPRPRPAYDPRP | -0.236
RRIRRRPPRLPRPRPRPRYCPRP | 0.216
RRIRCRPPRLPRPRPRPTEVPRP | -0.135
RRIRSRPPRLPRPRPRPTQDPRP | 0.445
RRIRFRPPRLPRPRPRPVHSPRP | -0.126
RRIRYRPPRLPRPRPRPYAQPRP | -1.36
RRIRGRPPRLPRPRPRPIYIPRP | -0.0529
RRIRYRPPRLPRPRPRPARMPRP | -0.0508
RRIRWRPPRLPRPRPRPVAYPRP | -0.0891
RRIRNRPPRLPRPRPRPDKKPRP | -0.0263
RRIRPRPPRLPRPRPRPHLFPRP | -0.0473
RRIRFRPPRLPRPRPRPPMMPRP | -0.0466
RRIRWRPPRLPRPRPRPFIAPRP | -0.291
RRIRFRPPRLPRPRPRPHNLPRP | -0.104
RRIRERPPRLPRPRPRPWPTPRP | 0.549
RRIRCRPPRLPRPRPRPEDPPRP | 0.779
RRIRTRPPRLPRPRPRPVWHPRP | 0.095
RRIRERPPRLPRPRPRPHKMPRP | -0.701
RRIRRRPPRLPRPRPRPQANPRP | 0.118
RRIRCRPPRLPRPRPRPEHQPRP | 0.0614
RRIRFRPPRLPRPRPRPWSQPRP | -0.0158

Sequence | shrunken log2 fold change
RRIRCRPPRLPRPRPRPQEPPRP | 0.359
RRIRLRPPRLPRPRPRPSHLPRP | -0.491
RRIRVRPPRLPRPRPRPAINPRP | -0.259
RRIRDRPPRLPRPRPRPTWLPRP | 0.909
RRIRGRPPRLPRPRPRPFCVPRP | 0.392
RRIRYRPPRLPRPRPRPHARPRP | -0.163
RRIRARPPRLPRPRPRPNNEPRP | -0.14
RRIRFRPPRLPRPRPRPPRYPRP | 0.246
RRIRRRPPRLPRPRPRPVPAPRP | 1.06
RRIRERPPRLPRPRPRPIMLPRP | -0.227
RRIRGRPPRLPRPRPRPIEYPRP | 0.0165
RRIRYRPPRLPRPRPRPWIQPRP | -0.101
RRIRGRPPRLPRPRPRPYIPPRP | -0.801
RRIRDRPPRLPRPRPRPCFLPRP | -0.106
RRIRLRPPRLPRPRPRPYWPPRP | -0.518
RRIRHRPPRLPRPRPRPNLVPRP | -0.00912
RRIRPRPPRLPRPRPRPIFTPRP | -0.0736
RRIRGRPPRLPRPRPRPMQRPRP | 1.29
RRIRYRPPRLPRPRPRPFTRPRP | -0.0174
RRIRTRPPRLPRPRPRPWFAPRP | 0.0386
RRIRIRPPRLPRPRPRPENFPRP | -0.0605
RRIRCRPPRLPRPRPRPAHKPRP | -0.0944
RRIRERPPRLPRPRPRPFIKPRP | -0.16
RRIRCRPPRLPRPRPRPWLQPRP | -0.199
RRIRIRPPRLPRPRPRPDEHPRP | -0.272

Sequence | shrunken log2 fold change
RRIRDRPPRLPRPRPRPWVAPRP | -0.0114
RRIRCRPPRLPRPRPRPESCPRP | -0.0297
RRIRCRPPRLPRPRPRPEAEPRP | 0.656
RRIRQRPPRLPRPRPRPIEEPRP | -0.00208
RRIRQRPPRLPRPRPRPSWRPRP | 0.0854
RRIRHRPPRLPRPRPRPPIFPRP | -0.163
RRIRIRPPRLPRPRPRPNITPRP | -0.726
RRIRDRPPRLPRPRPRPKKFPRP | 0.117
RRIRIRPPRLPRPRPRPVTIPRP | 0.00236
RRIRSRPPRLPRPRPRPFEHPRP | -0.0715
RRIRSRPPRLPRPRPRPEHWPRP | 0.422
RRIRYRPPRLPRPRPRPCHNPRP | -1.52
RRIRERPPRLPRPRPRPFVWPRP | -0.0465
RRIRPRPPRLPRPRPRPHKGPRP | 0.0224
RRIRGRPPRLPRPRPRPIRVPRP | -0.189
RRIRLRPPRLPRPRPRPMGKPRP | -0.353
RRIRCRPPRLPRPRPRPMCQPRP | -0.0371
RRIRWRPPRLPRPRPRPVVQPRP | -0.131
RRIRERPPRLPRPRPRPMDWPRP | 0.0151
RRIRHRPPRLPRPRPRPTCRPRP | -0.232
RRIRDRPPRLPRPRPRPAQMPRP | 1.2
RRIRHRPPRLPRPRPRPLYTPRP | -0.57
RRIRIRPPRLPRPRPRPIDPPRP | -0.142
RRIRRRPPRLPRPRPRPKYCPRP | 0.0144
RRIRNRPPRLPRPRPRPPDLPRP | 0.101

Sequence | shrunken log2 fold change
RRIRTRPPRLPRPRPRPRRNPRP | 0.125
RRIRWRPPRLPRPRPRPAEHPRP | -0.0393
RRIRFRPPRLPRPRPRPQSRPRP | 0.0257
RRIRTRPPRLPRPRPRPEFFPRP | -0.0853
RRIRQRPPRLPRPRPRPMFAPRP | 0.0682
RRIRDRPPRLPRPRPRPSRKPRP | -0.0764
RRIRKRPPRLPRPRPRPKDQPRP | 0.619
RRIRQRPPRLPRPRPRPEVWPRP | 0.552
RRIRNRPPRLPRPRPRPWMTPRP | -0.189
RRIRIRPPRLPRPRPRPLNWPRP | -0.291
RRIRLRPPRLPRPRPRPGWKPRP | -0.0726
RRIRRRPPRLPRPRPRPDTTPRP | 0.192
RRIRARPPRLPRPRPRPYHKPRP | -0.193
RRIRSRPPRLPRPRPRPTCWPRP | 1.09
RRIRDRPPRLPRPRPRPMSDPRP | 1.13
RRIRMRPPRLPRPRPRPGFPPRP | 0.446
RRIRARPPRLPRPRPRPLCRPRP | 0.327
RRIRWRPPRLPRPRPRPENEPRP | 0.194
RRIRERPPRLPRPRPRPNHQPRP | -0.259
RRIRWRPPRLPRPRPRPVFAPRP | 0.394
RRIRVRPPRLPRPRPRPQSSPRP | -0.0172
RRIRGRPPRLPRPRPRPQFVPRP | 0.0536
RRIRERPPRLPRPRPRPQLVPRP | 0.0441
RRIRGRPPRLPRPRPRPDGNPRP | 0.276
RRIRTRPPRLPRPRPRPFHEPRP | -0.126

Sequence | shrunken log2 fold change
RRIRVRPPRLPRPRPRPSIWPRP | -0.205
RRIRLRPPRLPRPRPRPAIPPRP | -0.0222
RRIRFRPPRLPRPRPRPDPIPRP | 0.159
RRIRVRPPRLPRPRPRPNWHPRP | -0.0428
RRIRPRPPRLPRPRPRPAPKPRP | 0.702
RRIRTRPPRLPRPRPRPVRYPRP | -0.028
RRIRRRPPRLPRPRPRPWTPPRP | 0.568
RRIRWRPPRLPRPRPRPAIDPRP | 0.294
RRIRARPPRLPRPRPRPMEDPRP | -0.0391
RRIRVRPPRLPRPRPRPGCLPRP | 0.236
RRIRFRPPRLPRPRPRPDSTPRP | -0.596
RRIRQRPPRLPRPRPRPGFMPRP | -0.176
RRIRDRPPRLPRPRPRPVCMPRP | 0.219
RRIRSRPPRLPRPRPRPMAFPRP | -0.0285
RRIRERPPRLPRPRPRPWPKPRP | -0.102
RRIRPRPPRLPRPRPRPVSWPRP | 0.704
RRIRIRPPRLPRPRPRPLAEPRP | -0.129
RRIRKRPPRLPRPRPRPAAYPRP | 0.361
RRIRWRPPRLPRPRPRPLYVPRP | -0.836
RRIRERPPRLPRPRPRPCYAPRP | -0.383
RRIRFRPPRLPRPRPRPIGWPRP | -0.0252
RRIRYRPPRLPRPRPRPYWMPRP | -0.686
RRIRGRPPRLPRPRPRPIDAPRP | 0.674
RRIRCRPPRLPRPRPRPQYHPRP | -0.425
RRIRHRPPRLPRPRPRPCQHPRP | -0.214

Sequence | shrunken log2 fold change
RRIRTRPPRLPRPRPRPYNSPRP | -0.00162
RRIRLRPPRLPRPRPRPDEEPRP | 0.138
RRIRWRPPRLPRPRPRPRMEPRP | 0.439
RRIRVRPPRLPRPRPRPKLWPRP | 0.127
RRIRHRPPRLPRPRPRPNHWPRP | -0.594
RRIRCRPPRLPRPRPRPIWGPRP | 0.25
RRIRHRPPRLPRPRPRPGLYPRP | -0.149
RRIRQRPPRLPRPRPRPVGDPRP | 0.203
RRIRWRPPRLPRPRPRPHFRPRP | 0.0695
RRIRLRPPRLPRPRPRPMVYPRP | -0.0262
RRIRYRPPRLPRPRPRPKRGPRP | 0.00607
RRIRWRPPRLPRPRPRPHMKPRP | -0.204
RRIRMRPPRLPRPRPRPCSLPRP | -0.0103
RRIRMRPPRLPRPRPRPLSGPRP | 0.815
RRIRGRPPRLPRPRPRPTRWPRP | 0.739
RRIRYRPPRLPRPRPRPRFMPRP | -0.323
RRIRSRPPRLPRPRPRPGFHPRP | 0.0792
RRIRVRPPRLPRPRPRPDFRPRP | 0.00256
RRIRLRPPRLPRPRPRPKRIPRP | 0.109
RRIRSRPPRLPRPRPRPIGFPRP | -0.0486
RRIRIRPPRLPRPRPRPEICPRP | -0.0162
RRIRRRPPRLPRPRPRPCLFPRP | -0.0047
RRIRCRPPRLPRPRPRPKWCPRP | -0.105
RRIRFRPPRLPRPRPRPEMFPRP | 0.099
RRIRRRPPRLPRPRPRPPGPPRP | 0.8
